Paper PMC7275066

Biological target: HPV52L1-C428A (human papillomavirus type 52 (HPV52))
Test: SEC; HPSEC on TSK Gel G 5000 pwxl, 10 mM PB pH 6.5, 0.5 M NaCl; serial molar ratios of C175A and C428A mutants; chVLP fraction analysed by SDS-PAGE and western blotting; pentamers to VLP

Substance: HPV16L1-C175A (domain or fragment)
- stoichiometry N (C175A:C428A molar ratio): 1
